Measured values as given in patent publication US20260201038A1 (CELLABMED, published 2026).

What was measured:
[1] = molecular target: B7-H1 (UniProt Q9NZQ7 19-239); assay: indirect ELISA, B7-H1 coated at 1 ug/mL, absorbance at 450 nm
Description: [The procedure below names another target; the source lists this target under the same test.] (§1) The binding ability of 2D IgG prepared in Example 2 for recombinant B7-H3 protein was investigated by indirect ELISA. For indirect ELISA, recombinant human 4lg B7-H3, recombinant human 2lg B7-H3 and recombinant mouse B7-H3 were diluted respectively to 1 μg/mL in 50 μL of PBS and adsorbed overnight onto a 96-well immunoplate (Corning, USA) by storing at 4° C. After reaction with a buffer solution containing 3% bovine serum albumin at room temperature for 1 hour, followed by washing 3 times with a buffer solution containing 0.5% Tween 20, each well was treated with 50 μL of the antibodies diluted serially (0.0001, 0.0003, 0.001, 0.003, 0.01, 0.03, 0.1, 0.3, 1, 3 and 10 nM). For antigen-antibody binding, the mixture was reacted at room temperature for 2 hours, and then washed 3 times with a buffer solution containing 0.5% Tween 20. After treating each well with 50 μL of anti-human immunoglobulin Fc-HRP antibodies (Jackson Immunoresearch, USA) diluted to 1:3,000, reaction was conducted at room temperature for 1 hour. […] As a result of measuring absorbance at 450 nm using a spectrophotometer (Biotek, USA), it was confirmed that 2D IgG binds to B7-H3, and the binding ability was in the order of 4lg B7-H3, 2lg B7-H3 and mouse B7-H3 (FIG. 2a). […]

[2] = molecular target: T1, B7-H2 (UniProt O75144 19-256, limits assumed); assay: indirect ELISA, B7-H2 coated at 1 ug/mL, absorbance at 450 nm
T1 sequence (looked up): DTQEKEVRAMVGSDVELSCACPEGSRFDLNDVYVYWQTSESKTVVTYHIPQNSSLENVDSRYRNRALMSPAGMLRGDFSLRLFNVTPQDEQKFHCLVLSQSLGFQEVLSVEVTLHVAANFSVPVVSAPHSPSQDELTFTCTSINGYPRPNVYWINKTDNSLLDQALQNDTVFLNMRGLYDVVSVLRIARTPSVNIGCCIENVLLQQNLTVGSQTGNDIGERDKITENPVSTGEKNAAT
Description: [The procedure below names another target; the source lists this target under the same test.] as §1

[3] = molecular target: T2, TPQRSPTGAVEVQVP; assay: peptide microarray, 15-mers of human 4Ig B7-H3; panel Ig-like-V type 2
T2 construct: 15-mer of human 4Ig B7-H3 on the peptide microarray, panel Ig-like-V type 2
T2 peptide: TPQRSPTGAVEVQVP
Description: (§2) It was confirmed that G2D IgG has linear epitopes since G2D was verified to recognize 4lg B7-H3 through western blot (FIG. 10a). Therefore, linear epitope mapping was conducted by Pepperprint GmbH (Germany). After preparing a peptide microarray from the 15 4lg B7-H3 amino acids with 14-amino acid overlaps, the antibodies binding to peptides were identified using secondary antibodies (FIG. 10b). As a result, it was confirmed that G2D IgG binds to a peptide having a sequence of EVQVP (FIG. 10c). EVQVP is located in the Ig-like V-type1 and Ig-like V-type2 domains of 4lg B7-H3 (FIGS. 10d and 10e). When the epitopes of the control antibody enoblituzumab were identified by the same method, it was confirmed that the epitopes include the sequence of GYPEAE (FIG. 10b), and GYPEAE is located in the Ig-like C2-type1 and Ig-like C2-type2 domains of 4lg B7-H3 (FIGS. 10d and 10e). As a result, it was confirmed that G2D IgG and the control antibody enoblituzumab have different epitopes.

[4] = molecular target: T3, PQRSPTGAVEVQVPE; assay: as above
T3 construct: 15-mer of human 4Ig B7-H3 on the peptide microarray, panel Ig-like-V type 2
T3 peptide: PQRSPTGAVEVQVPE
Description: as §2

[5] = molecular target: T4, QRSPTGAVEVQVPED; assay: as above
T4 construct: 15-mer of human 4Ig B7-H3 on the peptide microarray, panel Ig-like-V type 2
T4 peptide: QRSPTGAVEVQVPED
Description: as §2

[6] = molecular target: T5, RSPTGAVEVQVPEDP; assay: as above
T5 construct: 15-mer of human 4Ig B7-H3 on the peptide microarray, panel Ig-like-V type 2
T5 peptide: RSPTGAVEVQVPEDP
Description: as §2

[7] = molecular target: T6, SPTGAVEVQVPEDPV; assay: as above
T6 construct: 15-mer of human 4Ig B7-H3 on the peptide microarray, panel Ig-like-V type 2
T6 peptide: SPTGAVEVQVPEDPV
Description: as §2

[8] = molecular target: T7, PTGAVEVQVPEDPVV; assay: as above
T7 construct: 15-mer of human 4Ig B7-H3 on the peptide microarray, panel Ig-like-V type 2
T7 peptide: PTGAVEVQVPEDPVV
Description: as §2

[9] = molecular target: T8, TGAVEVQVPEDPVVA; assay: as above
T8 construct: 15-mer of human 4Ig B7-H3 on the peptide microarray, panel Ig-like-V type 2
T8 peptide: TGAVEVQVPEDPVVA
Description: as §2

[10] = molecular target: T9, GAVEVQVPEDPVVAL; assay: as above
T9 construct: 15-mer of human 4Ig B7-H3 on the peptide microarray, panel Ig-like-V type 2
T9 peptide: GAVEVQVPEDPVVAL
Description: as §2

[11] = molecular target: T10, VEVQVPEDPVVALVG; assay: as above
T10 construct: 15-mer of human 4Ig B7-H3 on the peptide microarray, panel Ig-like-V type 2
T10 peptide: VEVQVPEDPVVALVG
Description: as §2

[12] = molecular target: B7-H3 on human cancer cells (human) (UniProt Q5ZPR3); assay: flow cytometry on A2780 ovarian cancer cells; control (secondary antibody only) < 5%
[13] = molecular target: B7-H3 on human cancer cells (human) (UniProt Q5ZPR3); assay: flow cytometry on HT29 colorectal cancer cells; control (secondary antibody only) < 15%
[14] = molecular target: B7-H3 on human cancer cells (human) (UniProt Q5ZPR3); assay: flow cytometry on Panc-1 pancreatic cancer cells; control (secondary antibody only) < 15%
[15] = molecular target: mouse B7-H3 expressed on Raji cells (mouse) (UniProt Q8VE98); assay: flow cytometry on Raji cells expressing mouse B7-H3; the vector control Raji cells show < 10%
Chain of mouse B7-H3 expressed on Raji cells (mouse) (Q8VE98 other isoform, or with tags, fused parts or gaps, form in doubt): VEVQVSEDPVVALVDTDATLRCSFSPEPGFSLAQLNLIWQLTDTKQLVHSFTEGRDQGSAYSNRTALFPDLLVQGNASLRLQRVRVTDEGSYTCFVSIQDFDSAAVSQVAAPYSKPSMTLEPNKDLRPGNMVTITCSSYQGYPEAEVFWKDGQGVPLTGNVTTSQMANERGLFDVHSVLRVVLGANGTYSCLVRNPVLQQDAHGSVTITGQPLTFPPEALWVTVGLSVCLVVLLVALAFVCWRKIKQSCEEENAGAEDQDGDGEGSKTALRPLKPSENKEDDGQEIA

Chain of B7-H1 (Q9NZQ7 19-239 limits assumed): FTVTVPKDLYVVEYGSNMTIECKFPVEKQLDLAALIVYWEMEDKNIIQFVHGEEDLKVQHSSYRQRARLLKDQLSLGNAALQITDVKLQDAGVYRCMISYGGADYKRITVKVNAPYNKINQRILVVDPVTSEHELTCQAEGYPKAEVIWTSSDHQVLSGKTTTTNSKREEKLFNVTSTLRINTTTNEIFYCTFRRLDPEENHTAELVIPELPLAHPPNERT

- binding result [1]: no binding (tested: 10 nM)
- binding result [2]: no binding (tested: 10 nM)
- fluorescence intensity of the peptide spot [3]: 89.3
- fluorescence intensity of the peptide spot [4]: 92.3
- fluorescence intensity of the peptide spot [5]: 80
- fluorescence intensity of the peptide spot [6]: 120
- fluorescence intensity of the peptide spot [7]: 94.8
- fluorescence intensity of the peptide spot [8]: 142
- fluorescence intensity of the peptide spot [9]: 84.5
- fluorescence intensity of the peptide spot [10]: 95
- fluorescence intensity of the peptide spot [11]: 92.5
- % of cells in the positive gate [12]: > 95%
- % of cells in the positive gate [13]: > 95%
- % of cells in the positive gate [14]: > 95%
- % of cells in the positive gate (P5) [15]: > 95%
B1: G2D IgG (antibody, V domains shown)
VH: QVQLVESGGGLVQPGGSLRLSCSASGFDFSSYPMVWVRQAPGKGLEYVSSINSGGSWTGYGAAVKGRATISRDNSKNTLYLQMNSLRAEDTATYYCARAYGAATIDAWGQGTTVTVSS
VL: SYELTQPPSVSVSPGQTARITCSGGSIGYGWYQQKAPGQAPVTVIYYNDRRPSGIPERFSGSKSGTTNTLTISGVQAEDEADYYCGSADSSSTYTGIFGGGTKLTVL
notes: The back-substitutions (L46T, S66K, V71N in VL); also called humanized 2D; G2D antibody
